Measured values: patent US20150329642A1 (Genmab, published 2015)

Columns and labels:
cMetECDHis [1] = molecular target: T1, cMetECDHis (human, UniProt P08581 25-932, limits assumed, biotinylated in the cross-block ELISA of Example 17); experiment: cross-block ELISA; competitor 062
T1 construct: Expressed in HEK-293F cells; also called soluble cMetECDHis; biotinylated cMetECDHis
Protocol: (§1) First, the optimal coating concentrations of the tested anti-c-Met antibodies and the optimal cMetECDHis concentration were determined. Therefore, ELISA wells were coated overnight at 4° C. with anti-c-Met HuMabs serially diluted in PBS (8 μg/mL in 2-fold dilutions). Next, the ELISA wells were washed with PBST (PBS supplemented with 0.05% Tween-20 [Sigma-Aldrich, Zwijndrecht, The Netherlands]) and blocked for one hour at room temperature (RT) with PBSTC (PBST supplemented 2% [v/v] chicken serum [Gibco, Paisley, Scotland]). Subsequently, the ELISA wells were washed with PBST and incubated for one hour at RT with biotinylated cMetECDHis serially diluted in PBSTC (1 μg/mL in 2-fold dilutions). Unbound biotinylated cMetECDHis was washed away with PBST, and bound biotinylated cMetECDHis was incubated for one hour at RT with 0.1 μg/mL Streptavidin-poly-HRP (Sanquin, Amsterdam, The Netherlands) diluted in PBST.
(§2) ELISA wells were coated with anti-c-Met antibody at a sub-optimal dose as described above. After blocking of the ELISA wells, they were incubated with the predetermined concentration of biotinylated cMetECDHis in the presence of an excess of anti-c-Met antibody. The reaction was developed as described above. Residual binding was expressed as a percentage relative to the binding observed in the absence of competitor antibody.

cMetECDHis [2] = molecular target: T1, cMetECDHis; experiment: cross-block ELISA; competitor 058
Protocol: as §1, §2

cMetECDHis [3] = molecular target: T1, cMetECDHis; experiment: cross-block ELISA; competitor 035
Protocol: as §1, §2

cMetECDHis [4] = molecular target: T1, cMetECDHis; experiment: cross-block ELISA; competitor 022
Protocol: as §1, §2

cMetECDHis [5] = molecular target: T1, cMetECDHis; experiment: cross-block ELISA; competitor 008
Protocol: as §1, §2

cMetECDHis [6] = molecular target: T1, cMetECDHis; experiment: cross-block ELISA; competitor 181
Protocol: as §1, §2

cMetECDHis [7] = molecular target: T1, cMetECDHis; experiment: cross-block ELISA; competitor 064
Protocol: as §1, §2

cMetECDHis [8] = molecular target: T1, cMetECDHis; experiment: cross-block ELISA; competitor 005
Protocol: as §1, §2

cMetECDHis [9] = molecular target: T1, cMetECDHis; experiment: cross-block ELISA; competitor 006
Protocol: as §1, §2

cMetECDHis [10] = molecular target: T1, cMetECDHis; experiment: cross-block ELISA; competitor 068
Protocol: as §1, §2

cMetECDHis [11] = molecular target: T1, cMetECDHis; experiment: cross-block ELISA; competitor 098
Protocol: as §1, §2

cMetECDHis [12] = molecular target: T1, cMetECDHis; experiment: cross-block ELISA; competitor G11-HZ
Protocol: as §1, §2

cMetECDHis [13] = molecular target: T1, cMetECDHis; experiment: cross-block ELISA; competitor 045
Protocol: as §1, §2

cMetECDHis [14] = molecular target: T1, cMetECDHis; experiment: BLI (Octet); antibody captured, cMetECDHis in solution
How it was run: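 Antibodies captured on Fc-specific anti-human IgG biosensors; HEK293-derived cMetECDHis at 10 μg/mL in diluted kinetics buffer bound for about 10 min, then dissociation in buffer alone. ka, kd and KD from 1:1 Langmuir fit.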

cMetECDHis [15] = molecular target: T1, cMetECDHis; experiment: cross-block ELISA; competitor 069
Protocol: as §1, §2

cMetECDHis [16] = molecular target: T1, cMetECDHis; experiment: cross-block ELISA; competitor 5D5
Protocol: as §1, §2

cMetECDHis [17] = molecular target: T1, cMetECDHis; experiment: cross-block ELISA; competitor 024
Protocol: as §1, §2

residual binding, % of no competitor (cMetECDHis [1]) [%]	residual binding, % of no competitor (cMetECDHis [2]) [%]	residual binding, % of no competitor (cMetECDHis [3]) [%]	residual binding, % of no competitor (cMetECDHis [4]) [%]	residual binding, % of no competitor (cMetECDHis [5]) [%]	residual binding, % of no competitor (cMetECDHis [6]) [%]	residual binding, % of no competitor (cMetECDHis [7]) [%]	residual binding, % of no competitor (cMetECDHis [8]) [%]	residual binding, % of no competitor (cMetECDHis [9]) [%]	residual binding, % of no competitor (cMetECDHis [10]) [%]	residual binding, % of no competitor (cMetECDHis [11]) [%]	residual binding, % of no competitor (cMetECDHis [12]) [%]	residual binding, % of no competitor (cMetECDHis [13]) [%]	Kd (cMetECDHis [14]) [nM]	koff (cMetECDHis [14]) [s⁻¹]	kon (cMetECDHis [14]) [M⁻¹ s⁻¹]	residual binding, % of no competitor (cMetECDHis [15]) [%]	residual binding, % of no competitor (cMetECDHis [16]) [%]	residual binding, % of no competitor (cMetECDHis [17]) [%]	Binder
36.9	93.1	96.7	90.7	94	41.9	37.4	91.5	89.7	45.9	9.7	98.3	94.7	1.27	0.000214	169000	9.5	97.2	40.5	anti-c-Met HuMab 101 (IgG1) (antibody, V domains shown) VH: QVQLVQSGGEVKKPGASVKVSCKASGYTFTRHGITWVRQAPGQGLEWMGWISADNGNTNYAQKFQDRVTMTTDTSTSTAYMELRSLRSDDTAVYFCARVFRYFDWLLPYFDYWGQGTLVTVST VL: not shown
109	4	90.1	6.8	90.2	121	109	31.4	43.6	119	112	81.5	112	2.7	0.00125	464000	113	2.8	109	IgG1-1016-058 (antibody, V domains shown, also called IgG1-058; TH1016-058) VH: EVQLVESGGGLVKPGGSLKLSCAASGFTFSDYYMYWVRQTPEKRLEWVATISDDGSYTYYPDSVKGRFTISRDNAKNNLYLQMSSLKSEDTAMYYCAREGLYYYGSGSYYNQDYWGQGTLVTVSS VL: AIQLTQSPSSLSASVGDRVTITCRASQGLSSALAWYRQKPGKAPKLLIYDASSLESGVPSRFSGSGSGTDFTLTISSLQPEDFATYYCQQFTSYPQITFGQGTRLEIK
